Reference: patent publication US20260242735A1 (UNIVERSIT T BASEL, published 2026)
Blank lines part the entries; values can stand above or below the binder they belong to.

Legend:
[1] = molecular target: T1, human wild-type CD33 (human, UniProt P20138 18-364); assay: flow cytometry, Fab at 0.50 ug/ml on HEK293-T cells expressing CD33 against vector alone
T1 construct: also called SIGLEC3; P67
Procedure: (§1) Serial dilutions of each Fab were tested for immunoreactivity against cells expressing wild-type CD33 or vector alone. The optimal screening concentration for the Fabs was determined based on the raw signal values and signal-to-background calculations. Each point represents the mean of four replicates.

[2] = molecular target: T1, human wild-type CD33; assay: flow cytometry, Fab at 1.00 ug/ml on HEK293-T cells expressing CD33 against vector alone
Procedure: as §1

[3] = molecular target: T2, human CD33 S359A (human, UniProt P20138 18-364); assay: alanine scan; flow cytometry, HEK293-T cells expressing the mutant; normalised to WT CD33;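 note: antibodies (IgG or Fab) at doses pre-set by titration on wild-type CD33, duplicate readings with background fluorescence subtracted, mutants made by site-directed alanine substitution (alanine changed to serine)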
T2 construct: Alanine-scan mutant clone of CD33 transiently transfected into HEK293-T cells
T2 sequence (P20138 18-364 S359A limits assumed): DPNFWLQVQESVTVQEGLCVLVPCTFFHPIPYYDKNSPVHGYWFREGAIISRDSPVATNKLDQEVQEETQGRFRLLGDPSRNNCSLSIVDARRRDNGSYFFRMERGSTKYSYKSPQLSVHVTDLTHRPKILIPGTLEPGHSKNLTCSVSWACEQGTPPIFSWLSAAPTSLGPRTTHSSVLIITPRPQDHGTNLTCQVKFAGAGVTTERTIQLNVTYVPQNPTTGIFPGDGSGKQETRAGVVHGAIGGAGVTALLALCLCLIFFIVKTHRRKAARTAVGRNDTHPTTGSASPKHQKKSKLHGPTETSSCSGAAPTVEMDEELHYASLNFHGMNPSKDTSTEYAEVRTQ
Procedure: (§2) An alanine scan on human CD33 was performed to the determine the residues on CD33 that are involved in binding to the antibodies investigated. […] Briefly, a mutation library of CD33 was created by high-throughput, site-directed mutagenesis. Each residue was individually mutated to alanine, with alanine codons mutated to serine. The mutant library was arrayed in 384-well microplates and transiently transfected into HEK293-T. Following transfection, cells were incubated with the indicated antibodies (IgG or Fab) at concentrations pre-determined using an independent immunofluorescence titration curve on wild type CD33. […] Binding of each antibody to each mutant clone was determined in duplicates. For each point, background fluorescence was subtracted from the raw data, which were then normalized to antibody reactivity with wild type CD33.
(§3) Critical residues for antibody binding (outlined in dark grey) were residues whose mutations led to a binding of the test Abs of less than 20%. Additional secondary residues (outlined in light grey) were identified that led to a binding of the test Abs of between 20 and 40% as compared to the wild type CD33.

[4] = molecular target: T3, human CD33 R362A (human, UniProt P20138 18-364); assay: as above
T3 construct: Alanine-scan mutant clone of CD33 transiently transfected into HEK293-T cells
T3 sequence (P20138 18-364 R362A limits assumed): as the sequence (P20138 18-364 S359A limits assumed) above, with A342S, R345A counted along it
Procedure: as §2, §3

[5] = molecular target: T4, human CD33 K352A (human, UniProt P20138 18-364); assay: as above
T4 construct: Alanine-scan mutant clone of CD33 transiently transfected into HEK293-T cells
Procedure: as §2, §3

[6] = molecular target: T5, human CD33 D353A (human, UniProt P20138 18-364); assay: as above
T5 construct: Alanine-scan mutant clone of CD33 transiently transfected into HEK293-T cells
Procedure: as §2, §3

[7] = molecular target: T6, human CD33 S355A (human, UniProt P20138 18-364); assay: as above
T6 construct: Alanine-scan mutant clone of CD33 transiently transfected into HEK293-T cells
Procedure: as §2, §3

[8] = molecular target: T7, human CD33 Q364A (human, UniProt P20138 18-363); assay: as above
T7 construct: Alanine-scan mutant clone of CD33 transiently transfected into HEK293-T cells
Procedure: as §2, §3

[9] = molecular target: T8, human CD33 E357A (human, UniProt P20138 18-364); assay: as above
T8 construct: Alanine-scan mutant clone of CD33 transiently transfected into HEK293-T cells
T8 sequence (P20138 18-364 E357A limits assumed): as the sequence (P20138 18-364 S359A limits assumed) above, with E340A, A342S counted along it
Procedure: as §2, §3

[10] = molecular target: T9, human CD33 T356A (human, UniProt P20138 18-364); assay: as above
T9 construct: Alanine-scan mutant clone of CD33 transiently transfected into HEK293-T cells
Procedure: as §2, §3

[11] = molecular target: T10, human CD33 H346A (human, UniProt P20138 18-364); assay: as above
T10 construct: Alanine-scan mutant clone of CD33 transiently transfected into HEK293-T cells
T10 sequence (P20138 18-364 H346A limits assumed): as the sequence (P20138 18-364 S359A limits assumed) above, with H329A, A342S counted along it
Procedure: as §2, §3

[12] = molecular target: T11, human CD33 G347A (human, UniProt P20138 18-364); assay: as above
T11 construct: Alanine-scan mutant clone of CD33 transiently transfected into HEK293-T cells
T11 sequence (P20138 18-364 G347A limits assumed): as the sequence (P20138 18-364 S359A limits assumed) above, with G330A, A342S counted along it
Procedure: as §2, §3

[13] = molecular target: T12, human CD33 N349A (human, UniProt P20138 18-364); assay: as above
T12 construct: Alanine-scan mutant clone of CD33 transiently transfected into HEK293-T cells
T12 sequence (P20138 18-364 N349A limits assumed): as the sequence (P20138 18-364 S359A limits assumed) above, with N332A, A342S counted along it
Procedure: as §2, §3

[14] = molecular target: T13, human CD33 S351A (human, UniProt P20138 18-364); assay: as above
T13 construct: Alanine-scan mutant clone of CD33 transiently transfected into HEK293-T cells
Procedure: as §2, §3

[15] = molecular target: T14, human CD33 T363A (human, UniProt P20138 18-364); assay: as above
T14 construct: Alanine-scan mutant clone of CD33 transiently transfected into HEK293-T cells
T14 sequence (P20138 18-364 T363A limits assumed): as the sequence (P20138 18-364 S359A limits assumed) above, with A342S, T346A counted along it
Procedure: as §2, §3

[16] = molecular target: T15, human CD33 V361A (human, UniProt P20138 18-364); assay: as above
T15 construct: Alanine-scan mutant clone of CD33 transiently transfected into HEK293-T cells
Procedure: as §2, §3

[17] = molecular target: T16, human CD33 P350A (human, UniProt P20138 18-364); assay: as above
T16 construct: Alanine-scan mutant clone of CD33 transiently transfected into HEK293-T cells
Procedure: as §2, §3

[18] = molecular target: T17, human CD33 Y358A (human, UniProt P20138 18-364); assay: as above
T17 construct: Alanine-scan mutant clone of CD33 transiently transfected into HEK293-T cells
T17 sequence (P20138 18-364 Y358A limits assumed): as the sequence (P20138 18-364 S359A limits assumed) above, with Y341A, A342S counted along it
Procedure: as §2, §3

[19] = molecular target: T18, human CD33 M348A (human, UniProt P20138 18-364); assay: as above
T18 construct: Alanine-scan mutant clone of CD33 transiently transfected into HEK293-T cells
T18 sequence (P20138 18-364 M348A limits assumed): as the sequence (P20138 18-364 S359A limits assumed) above, with M331A, A342S counted along it
Procedure: as §2, §3

[20] = molecular target: T19, human CD33 T354A (human, UniProt P20138 18-364); assay: as above
T19 construct: Alanine-scan mutant clone of CD33 transiently transfected into HEK293-T cells
Procedure: as §2, §3

[21] = molecular target: T20, human CD33 E360A (human, UniProt P20138 18-364); assay: as above
T20 construct: Alanine-scan mutant clone of CD33 transiently transfected into HEK293-T cells
Procedure: as §2, §3

[22] = molecular target: human CD33 S28A (human, UniProt P20138 18-364); assay: flow cytometry, alanine scan
Procedure: as §2, §3

[23] = molecular target: human CD33 P40A (human, UniProt P20138 18-364); assay: flow cytometry, alanine scan
Procedure: as §2, §3

[24] = molecular target: human CD33 V37A (human, UniProt P20138 18-364); assay: flow cytometry, alanine scan
Procedure: as §2, §3

[25] = molecular target: human CD33 H45A (human, UniProt P20138 18-364); assay: flow cytometry, alanine scan
Procedure: as §2, §3

[26] = molecular target: human CD33 E33A (human, UniProt P20138 18-364); assay: flow cytometry, alanine scan
Procedure: as §2, §3

[27] = molecular target: human CD33 N20A (human, UniProt P20138 18-364); assay: flow cytometry, alanine scan
Chain of human CD33 N20A (P20138 18-364 N20A limits assumed): as the sequence (P20138 18-364 S359A limits assumed) above, with N3A, A342S counted along it
Procedure: as §2, §3

[28] = molecular target: human CD33 W22A (human, UniProt P20138 18-364); assay: flow cytometry, alanine scan
Procedure: as §2, §3

[29] = molecular target: human CD33 C41A (human, UniProt P20138 18-364); assay: flow cytometry, alanine scan
Procedure: as §2, §3

[30] = molecular target: human CD33 L35A (human, UniProt P20138 18-364); assay: flow cytometry, alanine scan
Procedure: as §2, §3

[31] = molecular target: human CD33 V29A (human, UniProt P20138 18-364); assay: flow cytometry, alanine scan
Procedure: as §2, §3

[32] = molecular target: human CD33 P19A (human, UniProt P20138 18-364); assay: flow cytometry, alanine scan
Procedure: as §2, §3

[33] = molecular target: human CD33 Q32A (human, UniProt P20138 18-364); assay: flow cytometry, alanine scan
Chain of human CD33 Q32A (P20138 18-364 Q32A limits assumed): as the sequence (P20138 18-364 S359A limits assumed) above, with Q15A, A342S counted along it
Procedure: as §2, §3

[34] = molecular target: human CD33 E27A (human, UniProt P20138 18-364); assay: flow cytometry, alanine scan
Procedure: as §2, §3

[35] = molecular target: human CD33 C36A (human, UniProt P20138 18-364); assay: flow cytometry, alanine scan
Procedure: as §2, §3

[36] = molecular target: human CD33 V31A (human, UniProt P20138 18-364); assay: flow cytometry, alanine scan
Procedure: as §2, §3

[37] = molecular target: human CD33 D18A (human, UniProt P20138 19-364); assay: flow cytometry, alanine scan
Procedure: as §2, §3

[38] = molecular target: human CD33 L23A (human, UniProt P20138 18-364); assay: flow cytometry, alanine scan
Chain of human CD33 L23A (P20138 18-364 L23A limits assumed): as the sequence (P20138 18-364 S359A limits assumed) above, with L6A, A342S counted along it
Procedure: as §2, §3

[39] = molecular target: human CD33 G34A (human, UniProt P20138 18-364); assay: flow cytometry, alanine scan
Procedure: as §2, §3

[40] = molecular target: human CD33 T42A (human, UniProt P20138 18-364); assay: flow cytometry, alanine scan
Chain of human CD33 T42A (P20138 18-364 T42A limits assumed): as the sequence (P20138 18-364 S359A limits assumed) above, with T25A, A342S counted along it
Procedure: as §2, §3

[41] = molecular target: human CD33 F43A (human, UniProt P20138 18-364); assay: flow cytometry, alanine scan
Procedure: as §2, §3

[42] = molecular target: human CD33 V39A (human, UniProt P20138 18-364); assay: flow cytometry, alanine scan
Procedure: as §2, §3

[43] = molecular target: human CD33 F21A (human, UniProt P20138 18-364); assay: flow cytometry, alanine scan
Procedure: as §2, §3

[44] = molecular target: human CD33 T30A (human, UniProt P20138 18-364); assay: flow cytometry, alanine scan
Procedure: as §2, §3

[45] = molecular target: human CD33 L38A (human, UniProt P20138 18-364); assay: flow cytometry, alanine scan
Procedure: as §2, §3

T1 sequence (P20138 18-364 limits assumed): as the sequence (P20138 18-364 S359A limits assumed) above, with A342S counted along it

Signal:Background [1]: 33 signal:background ratio
B1: Refmab #4 Fab fragment (Fab, V domains shown)
VH: QVQLVQSGAEVKKPGESVKVSCKASGYTFTNYGMNWVKQAPGQGLEWMGWINTYTGEPTYADKFQGRVTMTTDTSTSTAYMEIRNLGGDDTAVYYCARWSWSDGYYVYFDYWGQGTSVTVSS
VL: DIVMTQSPDSLTVSLGERTTINCKSSQSVLDSSTNKNSLAWYQQKPGQPPKLLLSWASTRESGIPDRFSGSGSGTDFTLTIDSPQPEDSATYYCQQSAHFPITFGQGTRLEIK

Signal:Background [2]: 7 signal:background ratio
B2: Refmab #2 Fab fragment (Fab, V domains shown)
VH: QVQLVQSGAEVKKPGSSVKVSCKASGGTFSDYAISWVRQAPGQGLEWMGRIIPILGVADYAQKFQGRVTITADKSTRTAYMELSSLRSEDTAVYYCARNWADAFDIWGQGTMVTVSS
VL: DIQLTQSPSSLSASVGDRVTITCRASQGISSVLAWYQQKPGKAPKLLIYDASSLESGVPSRFSGSGSGTDFTLTISSLQPEDFATYYCQQFDSSITFGQGTKLEIK

Signal:Background [1]: 17 signal:background ratio
B3: Refmab #5 Fab fragment (Fab, V domains shown)
VH: QVQLVQSGAEVKKPGASVKVSCKASGYTFTNYDINWVRQAPGQGLEWIGWIYPGDGSTKYNEKFKAKATLTADTSTSTAYMELRSLRSDDTAVYYCASGYEDAMDYWGQGTTVTVSS
VL: DIQMTQSPSSLSASVGDRVTINCKASQDINSYLSWFQQKPGKAPKTLIYRANRLVDGVPSRFSGSGSGQDYTLTISSLQPEDFATYYCLQYDEFPLTFGGGTKVEIK

Mean % WT Binding [3]: 87.2 % WT binding
Mean % WT Binding [4]: 101 % WT binding
Mean % WT Binding [5]: 112 % WT binding
Mean % WT Binding [6]: 74.6 % WT binding
Mean % WT Binding [7]: 126 % WT binding
Mean % WT Binding [8]: 107 % WT binding
Mean % WT Binding [9]: 75.3 % WT binding
Mean % WT Binding [10]: 89.3 % WT binding
Mean % WT Binding [11]: 114 % WT binding
Mean % WT Binding [12]: 104 % WT binding
Mean % WT Binding [13]: 84.9 % WT binding
Mean % WT Binding [14]: 88.9 % WT binding
Mean % WT Binding [15]: 90.1 % WT binding
Mean % WT Binding [16]: 84.5 % WT binding
Mean % WT Binding [17]: 93.8 % WT binding
Mean % WT Binding [18]: 97.9 % WT binding
Mean % WT Binding [19]: 92.3 % WT binding
Mean % WT Binding [20]: 84.7 % WT binding
Mean % WT Binding [21]: 107 % WT binding
B4: Refmab #5 (antibody, V domains shown)
VH: QVQLVQSGAEVKKPGASVKVSCKASGYTFTNYDINWVRQAPGQGLEWIGWIYPGDGSTKYNEKFKAKATLTADTSTSTAYMELRSLRSDDTAVYYCASGYEDAMDYWGQGTTVTVSS
VL: DIQMTQSPSSLSASVGDRVTINCKASQDINSYLSWFQQKPGKAPKTLIYRANRLVDGVPSRFSGSGSGQDYTLTISSLQPEDFATYYCLQYDEFPLTFGGGTKVEIK
notes: Full-length format is human IgG1 Fc silent (PG-LALA); The alanine scan used IgG or Fab

Signal:Background [2]: 12 signal:background ratio
B5: Refmab #3 Fab fragment (Fab, V domains shown)
VH: QVQLVQSGAEVKKPGSSVKVSCKASGYTFTDYNMHWVRQAPGQGLEWIGYIYPYNGGTGYNQKFKSKATITADESTNTAYMELSSLRSEDTAVYYCARGRPAMDYWGQGTLVTVSS
VL: DIQMTQSPSSLSASVGDRVTITCRASESVDNYGISFMNWFQQKPGKAPKLLIYAASNQGSGVPSRFSGSGSGTDFTLTISSLQPDDFATYYCQQSKEVPWTFGQGTKVEIK

Mean % WT Binding [22]: 89.4 % of WT
Mean % WT Binding [23]: 55.5 % of WT
Mean % WT Binding [24]: 111 % of WT
Mean % WT Binding [25]: 87.8 % of WT
Mean % WT Binding [26]: 90 % of WT
Mean % WT Binding [27]: 92.9 % of WT
Mean % WT Binding [28]: 3.8 % of WT
Mean % WT Binding [29]: 4.5 % of WT
Mean % WT Binding [30]: 97.2 % of WT
Mean % WT Binding [31]: 112 % of WT
Mean % WT Binding [32]: 87.4 % of WT
Mean % WT Binding [33]: 91.3 % of WT
Mean % WT Binding [34]: 92.6 % of WT
Mean % WT Binding [35]: 110 % of WT
Mean % WT Binding [36]: 105 % of WT
Mean % WT Binding [37]: 39.5 % of WT
Mean % WT Binding [38]: 41.4 % of WT
Mean % WT Binding [39]: 100 % of WT
Mean % WT Binding [40]: 36.6 % of WT
Mean % WT Binding [41]: 34.6 % of WT
Mean % WT Binding [42]: 79.2 % of WT
Mean % WT Binding [43]: 88.1 % of WT
Mean % WT Binding [44]: 104 % of WT
Mean % WT Binding [45]: 105 % of WT
B6: Refmab #6 (antibody, V domains shown)
VH: QVQLQQPGAEVVKPGASVKMSCKASGYTFTSYYIHWIKQTPGQGLEWVGVIYPGNDDISYNQKFQGKATLTADKSSTTAYMQLSSLTSEDSAVYYCAREVRLRYFDVWGQGTTVTVSS
VL: EIVLTQSPGSLAVSPGERVTMSCKSSQSVFFSSSQKNYLAWYQQIPGQSPRLLIYWASTRESGVPDRFTGSGSGTDFTLTISSVQPEDLAIYYCHQYLSSRTFGQGTKLEIK
notes: The alanine scan used IgG or Fab
